The term Kd denotes the free concentration of one partner at which half of the binding sites on the other are occupied at equilibrium, for simple one-to-one binding. A word on the koff: it is the first-order rate constant of dissociation. Usually kon stands for a measure of how fast the partners come together. For orientation: IC50 means the concentration that gives 50% inhibition.

Four molecules from US20200299375A1 (TILLOTTS PHARMA, published 2020) can be followed below.

B1: 17-22-B03-sc08 (scFv)
scFv: MDIQMTQSPSSLSASVGDRVTITCQASQSISSYLAWYQQKPGKAPKLLIYKASTLASGVPSRFSGSGSGTDFTLTISSLQPEDFATYYCQCTYYEPSYVFRAFGGGTKLTVLGGGGGSGGGGSGGGGSGGGGSEVQLVESGGGLVQPGGSLRLSCKASGIDFSAGYDMCWVRQAPGKGLEWIACIDSRREESDYASWAKGRFTISKDSSKNTVYLQMNSLRAEDTAVYYCARGGYGGDGVDGAFDPWGQGTLVTVSS
notes: Humanized scFv, CDR-grafted light chain and structural-grafted heavy chain (CDR/STR); also called 17-22-B03-sc08 (CDR/STR); domain shuffled variant
B2: 17-22-B03-sc12 (scFv)
scFv: B1 scFv with C91S
notes: Humanized scFv, CDR(C90S)/STR design; also called 17-22-B03-sc12 (CDR(C90S)/STR)
B3: 17-22-B03-sc02 (scFv)
scFv: B1 scFv with T23K, D71E, S78D, Q80E, E82A
notes: Humanized scFv, structural graft (STR); also called 17-22-B03-sc02 (STR); structural graft
B4: recombinant human TNFβ (ligand, UniProt P01374 35-205, looked up)
chain: LPGVGLTPSAAQTARQHPKMHLAHSTLKPAAHLIGDPSKQNSLLWRANTDRAFLQDGFSLSNNSLLVPTSGIYFVYSQVVFSGKAYSPKATSSPLYLAHEVQLFSSQYPFHVPLLSSQKMVYPGLQEPWLHSMYHGAAFQLTQGDQLSTHTDGIPHLVLSPSTVFFGAFAL

Assay [1] addresses T1, recombinant human TNFα (human, UniProt P01375 77-233). The assay is described as follows: cell-based or functional assay.
The target of assay [2] is T2, recombinant Cynomolgus monkey TNFα (Cynomolgus monkey (Macaca fascicularis), UniProt P79337 77-233). In words: cell-based or functional assay.
Assay [3] concerns the target T3, Rhesus monkey TNFα (Rhesus monkey (Macaca mulatta), UniProt P48094 77-233). In words: cell-based or functional assay.
For assay [4], the target named is T1, recombinant human TNFα. In words: SPR (MASS-1), TNFα immobilised by amine coupling, scFv injected 45 to 1.4 nM. As to the method: (§1) In a second step, for the best performing scFvs, Single Injection Cycle Kinetics (SiCK) were measured from a single injection cycle by simultaneously injecting six analyte samples at different concentrations into each of the eight parallel channels in the MASS-1 system. […] The apparent dissociation (kd) and association (kₐ) rate constants and the apparent dissociation equilibrium constant (KD) were calculated with the MASS-1 analysis software (Analyzer, Sierra Sensors) using one-to-one Langmuir binding model and quality of the fits was monitored based on Chi², which is a measure for the quality of the curve fitting. The smaller the value for the Chi² the more accurate is the fitting to the one-to-one Langmuir binding model. For affinity screenings, results were deemed valid if the Chi² was below 10 for the concentration analyzed. In cases where several scFv concentrations were analyzed, results were deemed valid if the average Chi^t over all the concentrations tested was below 10.

In assay [5] the target is T1, recombinant human TNFα. The assay is described as follows: inhibition ELISA, biotinylated human TNFα (960 pM) on coated TNFRI-Fc, scFv varied. Here is the method:
(§2) For the first inhibition ELISA, the extracellular domain of TNFRI fused to the Fc region of human IgG (R&D Systems, Cat. No. 372-RI) was coated on a 96-well Maxisorp ELISA at a concentration of 0.5 μg/mL. For the second inhibition ELISA, the extracellular domain of TNFRII fused to the Fc region of human IgG (R&D Systems, Cat. No. 726-R2) was coated at a concentration of 2 μg/mL. All subsequent steps were identical for both assays.
In general terms: An ELISA detects its analyte on a solid surface through an enzyme-linked reagent.

The target of assay [6] is T1, recombinant human TNFα. The assay is described as follows: inhibition ELISA, biotinylated human TNFα (960 pM) on coated TNFRII-Fc, scFv varied. Here is the method: as §2
The assay “recombinant human TNFβ” addresses B4. In words: competition ELISA, coated scFv, biotinylated TNFα, unlabeled TNFβ or TNFα as competitor. Here is the method: (§3) For this purpose, the scFvs were coated on a 96-well Maxisorp ELISA plate at a concentration of 1 μg/mL. […] To control precision of the response, the dose-response curves were analyzed in duplicate.
Assay [7] has as its target T2, recombinant Cynomolgus monkey TNFα. In words: SPR (MASS-1), TNFα immobilised by amine coupling, scFv injected 45 to 1.4 nM. As to the method: as §1
Assay [8] concerns the target T3, Rhesus monkey TNFα. The assay is described as above. As to the method: as §1
The target in assay [9] is T1, recombinant human TNFα. In words: inhibition ELISA: biotinylated human TNFα pre-incubated with the scFv, binding to coated TNFRI-Fc detected with streptavidin-HRP [panel 17-22-B03-sc12]. Here is the method: as §2
For assay [10], the target named is T1, recombinant human TNFα. The assay is described as follows: inhibition ELISA: biotinylated human TNFα pre-incubated with the scFv, binding to coated TNFRII-Fc detected with streptavidin-HRP [panel 17-22-B03-sc12]. As to the method: as §2
For assay [11], the target named is T3, Rhesus monkey TNFα. In words: SPR, TNFα immobilised, scFv injected. A general note: SPR reads the build-up and loss of mass on a sensor chip optically.
The assay “17-22-B03-sc08” concerns the target B1. The assay is described as follows: competition ELISA, coated scFv, biotinylated TNFα (75 ng/mL), unlabeled TNFβ varied. As to the method:
as §3

For the assay “17-22-B03-sc12”, the target named is B2. Described as above. Here is the method: as §3
The assay “17-22-B03-sc02” addresses B3. The assay is described as above. Here is the method: as §3

Numbering of substitutions follows the chain as printed. Names and notes keep the numbering of the source.

T2 sequence (P79337 77-233 limits assumed): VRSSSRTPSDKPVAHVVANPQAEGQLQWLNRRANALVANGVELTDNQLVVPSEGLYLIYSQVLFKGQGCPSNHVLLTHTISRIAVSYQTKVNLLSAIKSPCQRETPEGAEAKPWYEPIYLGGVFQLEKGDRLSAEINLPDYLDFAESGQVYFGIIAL
T1 sequence (P01375 77-233 limits assumed): as the sequence (P79337 77-233 limits assumed) above, with V37L, T44R, N72T, L138R counted along it
T3 sequence (P48094 77-233 limits assumed): as the sequence (P79337 77-233 limits assumed) above, with V37L counted along it

With B1, in the assay with recombinant human TNFα [1], the “Potency (L929 assay), rel. IC50 (IC50 Infliximab/IC50 scFv, ng/mL)” value (shortened to “Potency (L929 assay), rel. IC50”) was 26 ratio; the “Potency (L929 assay), rel. IC90 (IC90 Infliximab/IC90 scFv, ng/mL)” value (shortened to “Potency (L929 assay), rel. IC90”) is 26.6 ratio; the “Species-specificity IC50 [ng/mL], L929 assay, human TNFα” value (shortened to “Species-specificity IC50 … human TNFα”) stood at 0.4 ng/mL. Also, the “Species-specificity IC50 [ng/mL], L929 assay, cyno TNFα” value (“Species-specificity IC50 … cyno TNFα” for short) in [2] was determined as 0.5 ng/mL. In the assay with Rhesus monkey TNFα [3], the “Species-specificity IC50 [ng/mL], L929 assay, rhesus TNFα” value (shortened to “Species-specificity IC50 … rhesus TNFα”) was 0.4 ng/mL. In the assay with recombinant human TNFα [4], the equilibrium dissociation constant (Kd) was found to be 0.061 nM, the koff is 6.8e-05 s⁻¹ and the kon turned out to be 1.1e+06 M⁻¹ s⁻¹. Further, in the assay with recombinant human TNFα [5], the IC50 is 0.0212 µg/mL; the “rel. IC50 (IC50 Infliximab/IC50 scFv), blocking of TNF-TNFRI interaction” value (from here on “rel. IC50 … of TNF-TNFRI interaction”) is 2.3 ratio; the “rel. IC90 (IC90 Infliximab/IC90 scFv), blocking of TNF-TNFRI interaction” value worked out at 2.5 ratio. Moreover, in the assay with recombinant human TNFα [6], the IC50 came to 0.0353 µg/mL; the “rel. IC50 (IC50 Infliximab/IC50 scFv), blocking of TNF-TNFRII interaction” value (“rel. IC50 … of TNF-TNFRII interaction” for short) turned out to be 2.8 ratio; the “rel. IC90 (IC90 Infliximab/IC90 scFv), blocking of TNF-TNFRII interaction” value was 2.7 ratio. For the same molecule, the “Target selectivity, rel. IC50 of TNFβ vs TNFα” value (from here on “Target selectivity, rel. IC50”) with recombinant human TNFβ was over 10000 fold.

Turning to B2, in the assay with recombinant human TNFα [1], the “Potency (L929 assay), rel. IC50” value was 13.4 ratio; the “Potency (L929 assay), rel. IC90” value came to 11.7 ratio; the “Species-specificity IC50 … human TNFα” value is 0.6 ng/mL. Moreover, the “Species-specificity IC50 … cyno TNFα” value in assay [2] was determined as 0.8 ng/mL. Also, the “Species-specificity IC50 … rhesus TNFα” value with Rhesus monkey TNFα [3] was determined as 0.9 ng/mL. In the assay with recombinant human TNFα [4], the equilibrium dissociation constant (Kd) is 0.048 nM, the koff was 4e-05 s⁻¹ and the kon is 830000 M⁻¹ s⁻¹. For the same molecule, in [7], the Kd came out at 0.07 nM, the koff worked out at 5.2e-05 s⁻¹ and the kon worked out at 750000 M⁻¹ s⁻¹. Moreover, in the assay with Rhesus monkey TNFα [8], the Kd was found to be 0.24 nM, the koff was 0.0002 s⁻¹ and the kon was determined as 830000 M⁻¹ s⁻¹. Further, the “rel. IC50 … of TNF-TNFRI interaction” value with recombinant human TNFα [5] was determined as 1.5 ratio. In addition, the “rel. IC50 … of TNF-TNFRII interaction” value with recombinant human TNFα [6] came out at 2.1 ratio. In addition, the “Target selectivity, rel. IC50” value with recombinant human TNFβ was over 10000 fold. Further, the “IC50 (read off the curve)” value with recombinant human TNFα [9] was about 0.03 µg/mL. Further, the “IC50 (read off the curve)” value in the assay with recombinant human TNFα [10] was about 0.03 µg/mL.

On to B3, for which, in the assay with recombinant human TNFα [1], the “Potency (L929 assay), rel. IC50” value was 23.7 ratio; the “Potency (L929 assay), rel. IC90” value turned out to be 29.4 ratio; the “Species-specificity IC50 … human TNFα” value is 0.5 ng/mL. For the same molecule, in assay [2], the “Species-specificity IC50 … cyno TNFα” value is 0.6 ng/mL. The “Species-specificity IC50 … rhesus TNFα” value in the assay with Rhesus monkey TNFα [3] stood at 0.3 ng/mL. In the assay with Rhesus monkey TNFα [11], the “fold difference in affinity against human TNFα” value is about 3 fold. In addition, in the assay with recombinant human TNFα [4], the Kd was determined as 0.052 nM, the dissociation rate constant (koff) came out at 5.9e-05 s⁻¹ and the kon is 1.1e+06 M⁻¹ s⁻¹. Besides, in assay [7], the Kd came out at 0.05 nM, the koff stood at 6e-05 s⁻¹ and the kon was found to be 1.2e+06 M⁻¹ s⁻¹. Also, in the assay with Rhesus monkey TNFα [8], the Kd amounted to 0.15 nM, the koff is 0.00011 s⁻¹ and the kon worked out at 710000 M⁻¹ s⁻¹. For the same molecule, in the assay with recombinant human TNFα [5], the IC50 was determined as 0.0334 µg/mL; the “rel. IC50 … of TNF-TNFRI interaction” value turned out to be 1.5 ratio; the “rel. IC90 (IC90 Infliximab/IC90 scFv), blocking of TNF-TNFRI interaction” value was 1.4 ratio. Moreover, in the assay with recombinant human TNFα [6], the IC50 turned out to be 0.0711 µg/mL; the “rel. IC50 … of TNF-TNFRII interaction” value is 1.4 ratio; the “rel. IC90 (IC90 Infliximab/IC90 scFv), blocking of TNF-TNFRII interaction” value was 1.8 ratio. Besides, the “Target selectivity, rel. IC50” value in the assay with recombinant human TNFβ is over 10000 fold.

As for B4, the IC50 in the assay with 17-22-B03-sc08, in the assay with 17-22-B03-sc12 and with 17-22-B03-sc02 was over 1250 µg/mL throughout.
